PMC12640004
Numbering of substitutions follows the chain as printed.

B1: JrIPT1 bioProbe (wild type) (dsDNA)
DNA 1: ATCATACTGATGGAGGAGGGCGGTCCCGAATTTATATATATAGTTTCTAC
DNA 2: GTAGAAACTATATATATAAATTCGGGACCGCCCTCCTCCATCAGTATGAT
B2: JrIPT1 mbioProbe (GCC-box mutant) (dsDNA)
DNA 1: B1 DNA 1 with G16T, G18T, G19T, G20T, G22T, G23T
DNA 2: B1 DNA 2 with C28A, C29A, C31A, C32A, C33A, C35A

Target: JrERF113-HIS (Juglans regia)
Experiment: EMSA

Row | Binder | binding result
1 | B1 | binds
2 | B2 | no binding
